Measurements published in patent publication US20230135471A1 (INTEGRATED DNA TECHNOLOGIES, published 2023).

How the values were obtained:
[1] = molecular target: MBP tagged 53BP1 fragment (a.a. 1484-1603); assay: BLI, fold change Ka of Ubv/Ka of CM1
[2] = molecular target: MBP tagged 53BP1 fragment (a.a. 1484-1603); assay: BLI, KA (M-1), log axis

| Binder | binding result [1] | binding result [2] |
| --- | --- | --- |
| CM149 (designed binder) Ubv: MHHHHHHGGSGYLIFVRMLTGKMIELEVMPSDTIEVIKAKIQDHEGIPLDEQHLTFQGTLLDDGYTLGDYNLLIDPKKMPLLRMQ | binds |  |
| CM149-DM (designed binder, also called CM210) Ubv: MHHHHHHGGSGYLIFVRMLTGKMIELEVMPSDTIEVIKAKIQDHEGIPLDEQHLTFQGTLLDDGYTLGDYNLLIDPKKMLVLRMQ |  | binds |
